# B1: GRPEL2 (natural protein)
# chain: STATQRTAGEDCRSEDPPDELGPPLAERALRVKAVKLEKEVQDLTVRYQRAIADCENIRRRTQRCVEDAKIFGIQSFCKDLVEVADILEKTTECISEESEPEDQKLTLEKVFRGLLLLEAKLKSVFAKHGLEKLTPIGDKYDPHEHELICHVPAGVGVQPGTVALVRQDGYKLHGRTIRLARVEVAVESQRRL
# Molecular target: the molecule itself
# Test: native gel or EMSA
protein,measurement,value
B1,stoichiometry N,2
